B1: FLAG-tagged full-length human TSC2 (natural protein)
chain: not shown
notes: human TSC2, full length, 1807 amino acids, UniProtKB/Swiss-Prot P49815-1; Could not be purified in the absence of TSC1; two copies stand in the TSCC; also called tuberin
B2: FLAG-tagged human TBC1D7 (natural protein, UniProt Q9P0N9 1-293, looked up)
chain: MTEDSQRNFRSVYYEKVGFRGVEEKKSLEILLKDDRLDTEKLCTFSQRFPLPSMYRALVWKVLLGILPPHHESHAKVMMYRKEQYLDVLHALKVVRFVSDATPQAEVYLRMYQLESGKLPRSPSFPLEPDDEVFLAIAKAMEEMVEDSVDCYWITRRFVNQLNTKYRDSLPQLPKAFEQYLNLEDGRLLTHLRMCSAAPKLPYDLWFKRCFAGCLPESSLQRVWDKVVSGSCKILVFVAVEILLTFKIKVMALNSAEKITKFLENIPQDSSDAIVSKAIDLWHKHCGTPVHSS
notes: human TBC1D7, 293 amino acids, GenBank AAH07054; part of the FL TSC1-TSC2-TBC1D7 (TSCCFL) plasmids; One copy stands in the TSCC
B3: FLAG-tagged full-length human TSC1 (natural protein, UniProt Q92574-1 1-1164, looked up)
chain: MAQQANVGELLAMLDSPMLGVRDDVTAVFKENLNSDRGPMLVNTLVDYYLETSSQPALHILTTLQEPHDKHLLDRINEYVGKAATRLSILSLLGHVIRLQPSWKHKLSQAPLLPSLLKCLKMDTDVVVLTTGVLVLITMLPMIPQSGKQHLLDFFDIFGRLSSWCLKKPGHVAEVYLVHLHASVYALFHRLYGMYPCNFVSFLRSHYSMKENLETFEEVVKPMMEHVRIHPELVTGSKDHELDPRRWKRLETHDVVIECAKISLDPTEASYEDGYSVSHQISARFPHRSADVTTSPYADTQNSYGCATSTPYSTSRLMLLNMPGQLPQTLSSPSTRLITEPPQATLWSPSMVCGMTTPPTSPGNVPPDLSHPYSKVFGTTAGGKGTPLGTPATSPPPAPLCHSDDYVHISLPQATVTPPRKEERMDSARPCLHRQHHLLNDRGSEEPPGSKGSVTLSDLPGFLGDLASEEDSIEKDKEEAAISRELSEITTAEAEPVVPRGGFDSPFYRDSLPGSQRKTHSAASSSQGASVNPEPLHSSLDKLGPDTPKQAFTPIDLPCGSADESPAGDRECQTSLETSIFTPSPCKIPPPTRVGFGSGQPPPYDHLFEVALPKTAHHFVIRKTEELLKKAKGNTEEDGVPSTSPMEVLDRLIQQGADAHSKELNKLPLPSKSVDWTHFGGSPPSDEIRTLRDQLLLLHNQLLYERFKRQQHALRNRRLLRKVIKAAALEEHNAAMKDQLKLQEKDIQMWKVSLQKEQARYNQLQEQRDTMVTKLHSQIRQLQHDREEFYNQSQELQTKLEDCRNMIAELRIELKKANNKVCHTELLLSQVSQKLSNSESVQQQMEFLNRQLLVLGEVNELYLEQLQNKHSDTTKEVEMMKAAYRKELEKNRSHVLQQTQRLDTSQKRILELESHLAKKDHLLLEQKKYLEDVKLQARGQLQAAESRYEAQKRITQVFELEILDLYGRLEKDGLLKKLEEEKAEAAEAAEERLDCCNDGCSDSMVGHNEEASGHNGETKTPRPSSARGSSGSRGGGGSSSSSSELSTPEKPPHQRAGPFSSRWETTMGEASASIPTTVGSLPSSKSFLGMKARELFRNKSESQCDEDGMTSSLSESLKTELGKDLGVEAKIPLNLDGPHPSPPTPDSVGQLHIMDYNETHHEHS
notes: human TSC1, full length, 1164 amino acids, UniProtKB/Swiss-Prot Q92574-1; Two copies stand in the TSCC; also called hamartin
B4: TSC1(Δ400-600) (natural protein, human, UniProt Q92574-1 1-1164, looked up)
chain: MAQQANVGELLAMLDSPMLGVRDDVTAVFKENLNSDRGPMLVNTLVDYYLETSSQPALHILTTLQEPHDKHLLDRINEYVGKAATRLSILSLLGHVIRLQPSWKHKLSQAPLLPSLLKCLKMDTDVVVLTTGVLVLITMLPMIPQSGKQHLLDFFDIFGRLSSWCLKKPGHVAEVYLVHLHASVYALFHRLYGMYPCNFVSFLRSHYSMKENLETFEEVVKPMMEHVRIHPELVTGSKDHELDPRRWKRLETHDVVIECAKISLDPTEASYEDGYSVSHQISARFPHRSADVTTSPYADTQNSYGCATSTPYSTSRLMLLNMPGQLPQTLSSPSTRLITEPPQATLWSPSMVCGMTTPPTSPGNVPPDLSHPYSKVFGTTAGGKGTPLGTPATSPPPAPPPPYDHLFEVALPKTAHHFVIRKTEELLKKAKGNTEEDGVPSTSPMEVLDRLIQQGADAHSKELNKLPLPSKSVDWTHFGGSPPSDEIRTLRDQLLLLHNQLLYERFKRQQHALRNRRLLRKVIKAAALEEHNAAMKDQLKLQEKDIQMWKVSLQKEQARYNQLQEQRDTMVTKLHSQIRQLQHDREEFYNQSQELQTKLEDCRNMIAELRIELKKANNKVCHTELLLSQVSQKLSNSESVQQQMEFLNRQLLVLGEVNELYLEQLQNKHSDTTKEVEMMKAAYRKELEKNRSHVLQQTQRLDTSQKRILELESHLAKKDHLLLEQKKYLEDVKLQARGQLQAAESRYEAQKRITQVFELEILDLYGRLEKDGLLKKLEEEKAEAAEAAEERLDCCNDGCSDSMVGHNEEASGHNGETKTPRPSSARGSSGSRGGGGSSSSSSELSTPEKPPHQRAGPFSSRWETTMGEASASIPTTVGSLPSSKSFLGMKARELFRNKSESQCDEDGMTSSLSESLKTELGKDLGVEAKIPLNLDGPHPSPPTPDSVGQLHIMDYNETHHEHS
notes: human TSC1 (1164 amino acids, Q92574-1) with an internal deletion of residues 400-600; also called TSC1 internal deletion construct; TSC1 of TSCC1Δ

Data set [1] concerns the molecule itself. Description: SEC-MALS; TSCC1Δ (TSC1(Δ400-600)-TSC2-TBC1D7) on Superose 6 10/300; 25 mM K-HEPES pH 7.6, 250 mM KCl, 0.5 mM EDTA, 1 mM TCEP; room temperature. (Size exclusion chromatography separates by hydrodynamic size, large species first.)
The data set “TSC1(Δ400-600)” deals with B4. The data set is described as above. The note with it: both partners purified.
The target in data set [2] is B3. Description: cryo-EM structure; single-particle cryo-EM of purified TSCCFL at 0.1-0.2 mg/mL on graphene oxide; 25 mM K-HEPES pH 7.6, 175 mM KCl or 150 mM LiCl, 1 mM TCEP; body 4.6 Å, pincer 8.1 Å, tail 8.2 Å. The following applies: both partners purified.
Data set [3] deals with B1. The description is as above. The following applies: both partners purified.
Data set [4] concerns the target B1. The data set is described as follows: SEC-MALS; TSCC1Δ (TSC1(Δ400-600)-TSC2-TBC1D7) on Superose 6 10/300; 25 mM K-HEPES pH 7.6, 250 mM KCl, 0.5 mM EDTA, 1 mM TCEP; room temperature. The following applies: both partners purified.

As a reminder, the stoichiometry N is a count of units in the complex or per binding partner. In the case of B1, in data set [1], the “stoichiometry N” value is around 2. B2: the binding result (with TSC1(Δ400-600); in data set [2]) was “binds” each time. Take B3: in data set [3], the binding result is listed as “binds”.

As for B4, the binding result in data set [4] is “binds”. Further, in data set [1], the “stoichiometry N” value was around 2.
